B1: MscS YFF G90W (complex, E. coli)
chain: MEDLNVVDSINGAGSYLVANQALLLSYAVNIVAALAIIIVGLIIARMISNAVNRLMISRKIDATVADFLSALVRYGIIAFTLIAALGRVWVQTASVIAVLGAAGLAVGLALQGSLSNLAAGVLLVMFRPFRAGEYVDLGGVAGTVLSVQIFSTTMRTADGKIIVIPNGKIIAGNIINFSREPVRRNEFIIGVAYDSDIDQVKQILTNIIQSEDRILKDREMTVRLNELGASSINFVVRVFSNSGDLQNVYFDVLERIKREFDAAGISFPYPQMDVNFKRVKEDKAA
B2: MscS YFF R88W (complex, E. coli, UniProt P0C0S1 1-286, looked up)
chain: MEDLNVVDSINGAGSYLVANQALLLSYAVNIVAALAIIIVGLIIARMISNAVNRLMISRKIDATVADFLSALVRYGIIAFTLIAALGWVGVQTASVIAVLGAAGLAVGLALQGSLSNLAAGVLLVMFRPFRAGEYVDLGGVAGTVLSVQIFSTTMRTADGKIIVIPNGKIIAGNIINFSREPVRRNEFIIGVAYDSDIDQVKQILTNIIQSEDRILKDREMTVRLNELGASSINFVVRVFSNSGDLQNVYFDVLERIKREFDAAGISFPYPQMDVNFKRVKEDKAA
B3: MscS YFF A98W (complex, E. coli, UniProt P0C0S1 1-286, looked up)
chain: MEDLNVVDSINGAGSYLVANQALLLSYAVNIVAALAIIIVGLIIARMISNAVNRLMISRKIDATVADFLSALVRYGIIAFTLIAALGRVGVQTASVIWVLGAAGLAVGLALQGSLSNLAAGVLLVMFRPFRAGEYVDLGGVAGTVLSVQIFSTTMRTADGKIIVIPNGKIIAGNIINFSREPVRRNEFIIGVAYDSDIDQVKQILTNIIQSEDRILKDREMTVRLNELGASSINFVVRVFSNSGDLQNVYFDVLERIKREFDAAGISFPYPQMDVNFKRVKEDKAA
B4: MscS YFF I97W (complex, E. coli, UniProt P0C0S1 1-286, looked up)
chain: MEDLNVVDSINGAGSYLVANQALLLSYAVNIVAALAIIIVGLIIARMISNAVNRLMISRKIDATVADFLSALVRYGIIAFTLIAALGRVGVQTASVWAVLGAAGLAVGLALQGSLSNLAAGVLLVMFRPFRAGEYVDLGGVAGTVLSVQIFSTTMRTADGKIIVIPNGKIIAGNIINFSREPVRRNEFIIGVAYDSDIDQVKQILTNIIQSEDRILKDREMTVRLNELGASSINFVVRVFSNSGDLQNVYFDVLERIKREFDAAGISFPYPQMDVNFKRVKEDKAA
B5: MscS YFF A94W (complex, E. coli)
chain: MEDLNVVDSINGAGSYLVANQALLLSYAVNIVAALAIIIVGLIIARMISNAVNRLMISRKIDATVADFLSALVRYGIIAFTLIAALGRVGVQTWSVIAVLGAAGLAVGLALQGSLSNLAAGVLLVMFRPFRAGEYVDLGGVAGTVLSVQIFSTTMRTADGKIIVIPNGKIIAGNIINFSREPVRRNEFIIGVAYDSDIDQVKQILTNIIQSEDRILKDREMTVRLNELGASSINFVVRVFSNSGDLQNVYFDVLERIKREFDAAGISFPYPQMDVNFKRVKEDKAA
B6: MscS YFF L105W (complex, E. coli, UniProt P0C0S1 1-286, looked up)
chain: MEDLNVVDSINGAGSYLVANQALLLSYAVNIVAALAIIIVGLIIARMISNAVNRLMISRKIDATVADFLSALVRYGIIAFTLIAALGRVGVQTASVIAVLGAAGWAVGLALQGSLSNLAAGVLLVMFRPFRAGEYVDLGGVAGTVLSVQIFSTTMRTADGKIIVIPNGKIIAGNIINFSREPVRRNEFIIGVAYDSDIDQVKQILTNIIQSEDRILKDREMTVRLNELGASSINFVVRVFSNSGDLQNVYFDVLERIKREFDAAGISFPYPQMDVNFKRVKEDKAA
B7: MscS YFF G113W (complex, E. coli, UniProt P0C0S1 1-286, looked up)
chain: MEDLNVVDSINGAGSYLVANQALLLSYAVNIVAALAIIIVGLIIARMISNAVNRLMISRKIDATVADFLSALVRYGIIAFTLIAALGRVGVQTASVIAVLGAAGLAVGLALQWSLSNLAAGVLLVMFRPFRAGEYVDLGGVAGTVLSVQIFSTTMRTADGKIIVIPNGKIIAGNIINFSREPVRRNEFIIGVAYDSDIDQVKQILTNIIQSEDRILKDREMTVRLNELGASSINFVVRVFSNSGDLQNVYFDVLERIKREFDAAGISFPYPQMDVNFKRVKEDKAA
B8: MscS YFF G101W (complex, E. coli, UniProt P0C0S1 1-286, looked up)
chain: MEDLNVVDSINGAGSYLVANQALLLSYAVNIVAALAIIIVGLIIARMISNAVNRLMISRKIDATVADFLSALVRYGIIAFTLIAALGRVGVQTASVIAVLWAAGLAVGLALQGSLSNLAAGVLLVMFRPFRAGEYVDLGGVAGTVLSVQIFSTTMRTADGKIIVIPNGKIIAGNIINFSREPVRRNEFIIGVAYDSDIDQVKQILTNIIQSEDRILKDREMTVRLNELGASSINFVVRVFSNSGDLQNVYFDVLERIKREFDAAGISFPYPQMDVNFKRVKEDKAA
B9: MscS YFF T93W (complex, E. coli)
chain: MEDLNVVDSINGAGSYLVANQALLLSYAVNIVAALAIIIVGLIIARMISNAVNRLMISRKIDATVADFLSALVRYGIIAFTLIAALGRVGVQWASVIAVLGAAGLAVGLALQGSLSNLAAGVLLVMFRPFRAGEYVDLGGVAGTVLSVQIFSTTMRTADGKIIVIPNGKIIAGNIINFSREPVRRNEFIIGVAYDSDIDQVKQILTNIIQSEDRILKDREMTVRLNELGASSINFVVRVFSNSGDLQNVYFDVLERIKREFDAAGISFPYPQMDVNFKRVKEDKAA
B10: MscS YFF A103W (complex, E. coli, UniProt P0C0S1 1-286, looked up)
chain: MEDLNVVDSINGAGSYLVANQALLLSYAVNIVAALAIIIVGLIIARMISNAVNRLMISRKIDATVADFLSALVRYGIIAFTLIAALGRVGVQTASVIAVLGAWGLAVGLALQGSLSNLAAGVLLVMFRPFRAGEYVDLGGVAGTVLSVQIFSTTMRTADGKIIVIPNGKIIAGNIINFSREPVRRNEFIIGVAYDSDIDQVKQILTNIIQSEDRILKDREMTVRLNELGASSINFVVRVFSNSGDLQNVYFDVLERIKREFDAAGISFPYPQMDVNFKRVKEDKAA
B11: wild-type (WT) MscS (complex, E. coli)
chain: MEDLNVVDSINGAGSWLVANQALLLSYAVNIVAALAIIIVGLIIARMISNAVNRLMISRKIDATVADFLSALVRYGIIAFTLIAALGRVGVQTASVIAVLGAAGLAVGLALQGSLSNLAAGVLLVMFRPFRAGEYVDLGGVAGTVLSVQIFSTTMRTADGKIIVIPNGKIIAGNIINFSREPVRRNEFIIGVAYDSDIDQVKQILTNIIQSEDRILKDREMTVRLNELGASSINFVVRVWSNSGDLQNVYWDVLERIKREFDAAGISFPYPQMDVNFKRVKEDKAA
B12: MscS YFF (complex, E. coli)
chain: MEDLNVVDSINGAGSYLVANQALLLSYAVNIVAALAIIIVGLIIARMISNAVNRLMISRKIDATVADFLSALVRYGIIAFTLIAALGRVGVQTASVIAVLGAAGLAVGLALQGSLSNLAAGVLLVMFRPFRAGEYVDLGGVAGTVLSVQIFSTTMRTADGKIIVIPNGKIIAGNIINFSREPVRRNEFIIGVAYDSDIDQVKQILTNIIQSEDRILKDREMTVRLNELGASSINFVVRVFSNSGDLQNVYFDVLERIKREFDAAGISFPYPQMDVNFKRVKEDKAA
B13: MscS YFF L109W (complex, E. coli, UniProt P0C0S1 1-286, looked up)
chain: MEDLNVVDSINGAGSYLVANQALLLSYAVNIVAALAIIIVGLIIARMISNAVNRLMISRKIDATVADFLSALVRYGIIAFTLIAALGRVGVQTASVIAVLGAAGLAVGWALQGSLSNLAAGVLLVMFRPFRAGEYVDLGGVAGTVLSVQIFSTTMRTADGKIIVIPNGKIIAGNIINFSREPVRRNEFIIGVAYDSDIDQVKQILTNIIQSEDRILKDREMTVRLNELGASSINFVVRVFSNSGDLQNVYFDVLERIKREFDAAGISFPYPQMDVNFKRVKEDKAA

Molecular target: the molecule itself
Test: SEC; HiPrep Superdex 200 16/600 after Ni-NTA; 0.03% DDM, 50 mM sodium phosphate pH 7.5, 150 mM NaCl; ratio of heptamers to monomers

Q: Does B1 bind?
A: binds

Q: Does B2 bind?
A: binds

Q: Does B3 bind?
A: binds

Q: Does B4 bind?
A: binds

Molecular target: the molecule itself
Test: native gel or EMSA; BN-PAGE after the fluorescence measurements of purified MscS reconstituted into DOPC bilayers (molar ratio 1:100; 40 mM HEPES pH 7.2, 100 mM KCl, 1 mM EGTA)

Q: B5 was tested. Which “stoichiometry N” value did it give?
A: 7

Q: How did the “stoichiometry N” value turn out when B6 was run?
A: 7

Q: With B7 as the protein, how does the “stoichiometry N” value read?
A: 7

Q: With B8 as the protein, how does the “stoichiometry N” value read?
A: 7

Q: B9 was tested. Which “stoichiometry N” value did it give?
A: 7

Q: B10 was tested. Which “stoichiometry N” value did it give?
A: 7

Molecular target: the molecule itself
Test: native gel or EMSA; BN-PAGE with Western blot for the His tag; membranes (30 ug protein) solubilised in PBS pH 7.4 with 1% DDM, 2.8 M urea, 1 mM EDTA, 30 min, room temperature; heptamer to monomers

Q: With B11 as the protein, how does the “stoichiometry N” value read?
A: 7

Q: B12 was tested. Which “stoichiometry N” value did it give?
A: 7

Molecular target: the molecule itself
Test: FRET or BRET; homo-FRET between Trp residues of different subunits read by steady-state fluorescence anisotropy; heptameric and dissociated fractions from SEC, DDM-solubilised; excitation 295 nm, emission 340-360 nm

Q: Does B13 bind?
A: binds

— article PMC4519979 (Biochemistry, 2015)
